Biological target: Chicken egg white-derived lysozyme (Sigma-Aldrich) (chicken) (UniProt P00698)
Experiment: SPR, Biacore T200; antigen immobilised, antibody as analyte

Sequence of Chicken egg white-derived lysozyme (Sigma-Aldrich) (chicken) (P00698 19-147): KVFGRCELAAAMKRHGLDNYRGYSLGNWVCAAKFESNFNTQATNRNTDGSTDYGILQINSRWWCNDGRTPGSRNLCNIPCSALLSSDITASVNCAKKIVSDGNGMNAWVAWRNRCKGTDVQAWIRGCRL

Kd: 0.177 nM
Substance: mouse anti-lysozyme antibody of clone Hy-HEL5, wild-type
